According to patent US20220170006A1, “A PSEUDO-RANDOM DNA EDITOR FOR EFFICIENT AND CONTINUOUS NUCLEOTIDE DIVERSIFICATION IN HUMAN CELLS” (THE BROAD INSTITUTE, INC., priority 2019, published 2022):

Tests used:
[1] = test system: 2000-bp window downstream of a T7 promoter on pTarget in HEK293T cells; experiment: Mutation rates in the 2000-bp window of the pTarget plasmid by high-throughput sequencing; format: cell-based, human; settings: cytidine deaminase only
Description: (§1) HEK293T cells were obtained from ATCC and were grown in high-glucose (4.5 g/L) DMEM supplemented with GlutaMAX™, 1 mM sodium pyruvate, 10% FBS, 100 units/mL of penicillin and 100 μg/mL of streptomycin in a humidified chamber with 5% CO2 at 37° C. Cells were maintained at ˜80% confluence in 24-well plates on the day of transfection. 250 ng of pTarget and 250 ng of pEditor plasmids were mixed together with 1 μl of TransIT-X2 reagent (Mirus) and the mixture was incubated in 50 μl of Opti-MEM® (Thermo Fisher Scientific™) for 30 min. The mixture was then added drop-wise to each well. […]
To sequence the targeted region (˜2000 bp) on pTarget, plasmids were extracted from ˜1 million cells using Qiaprep Spin Miniprep Kit. PCR was performed using those plasmids as templates (primer sequences are shown in Table 2 above. Ampure® XP beads (Beckman Coulter™) were added to samples at a 0.8:1 ratio to size select for the pcr'ed fragments. The concentration of each sample was measured by Qubit™ (Thermo Fisher Scientific™). 1 ng of DNA at a volume of 2.5 μl from each sample was used as input for the subsequent library preparation. Sequencing library was prepared following the Nextera® XT Kit protocol (Illumina®) except that half the amount of each reagent was used. To sequence the targeted loci, genomic DNA was extracted from ˜1 million cells using the Quick-DNA™ Kit (Zymo Research™). […]

[2] = test system: EGFP gene solely under the control of a T7 promoter (pTarget) in HEK293T cells; experiment: EGFP expression from pTarget driven by pEditor variants (T7 RNAP transcriptional activity); format: cell-based, human; settings: HEK293T cells co-transfected with pTarget and pEditor variant; listed as pAPOEBC
Description: Each pEditor variant was introduced into HEK293T cells together with pTarget in which EGFP gene was solely under the control of a T7 promoter. […] Scale bar, 200 μm, which also applies to other micrographs. […] Cells transfected with pTarget and pEditor plasmids were incubated for 3 days before being harvested. pTarget plasmids were extracted and PCR reactions were performed to amplify the target region. Sequencing libraries were prepared using the PCR products and next-generation sequencing was performed. Mutation rates in each group, across different pEditor variants, were calculated.
as §1
To test whether fusing a cytidine deaminase to T7 RNAP maintained T7 RNAP activity, pTarget and various pEditor plasmids were transfected into HEK 293T cells and EGFP fluorescence under each condition was measured.

B1: pAPOBEC: control plasmid expressing deaminase alone (rat APOBEC1) (protein, UniProt P38483 1-229, looked up)
C->U-editing enzyme APOBEC-1: MSSETGPVAVDPTLRRRIEPHEFEVFFDPRELRKETCLLYEINWGGRHSIWRHTSQNTNKHVEVNFIEKFTTERYFCPNTRCSITWFLSWSPCGECSRAITEFLSRYPHVTLFIYIARLYHHADPRNRQGLRDLISSGVTIQIMTEQESGYCWRNFVNYSPSNEAHWPRYPHLWVRLYVLELYCIILGLPPCLNILRRKQPQLTFFTIALQSCHYQRLPPHILWATGLK
C->T and G->A mutation rates compared with background (pT7) error rates [1]: not statistically different from the background error rates
EGFP expression / EGFP signals [2]: not
